From patent US20250064909A1 (MEDIMABBIO, published 2025)

Experiments:
[1] = molecular target: T1, recombinant human TIGIT (Sino Biological) (human, UniProt Q495A1 22-138); test: SPR (Biacore T200), single cycle kinetics, IgG from supernatant captured on anti-human chip, TIGIT as analyte, 1:1 fit;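 further: measured at 25 °C in HBS-P+ with 1% BSA, four ascending TIGIT concentrations, 210 s association per step, one final 900 s dissociation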
T1 construct: Bought protein; NP_776160.2; also called human TIGIT antigen; hTIGIT
T1 sequence: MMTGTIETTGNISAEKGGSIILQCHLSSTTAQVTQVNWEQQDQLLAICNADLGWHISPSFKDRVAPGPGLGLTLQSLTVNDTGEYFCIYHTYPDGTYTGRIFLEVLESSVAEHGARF

[2] = molecular target: T1, recombinant human TIGIT (Sino …); test: SPR single cycle kinetics; KD divided by KD of the VH0/Vκ0 chimeric antibody;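 further: biacore T200 SPR at 25 °C, IgG captured on anti-human chip, TIGIT analyte in four rising concentrations, 210 s association each, 900 s dissociation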

Binder	Kd [1] [nM]	koff [1] [s⁻¹]	kon [1] [M⁻¹ s⁻¹]	Relative KD [2]
7A6 VH3/Vκ3 humanized antibody (human IgG1, kappa) (antibody, V domains shown, Tested as IgG in supernatant of transiently transfected HEK293 EBNA cells) VH: QVQLQESGPGLVKPSQTLSLTCTVTGYSITSDYAWNWIRQPPGKGLEWMGYISYSGSARYNPSLKSRVTISRDTSKNQFSLKLSSVTAEDTATYYCARKGYPAYFAYWGQGTLVTVSS VL: DIQMTQSPSSLSASVGDRVSITCKASQDVSTAVAWYQQKPGQAPRLLIYSASYRYTGVPDRFSGSGSGTDFTLTISSLQAEDVAVYYCQHHYSTPYTFGQGTKLEIKR	0.903	0.0015	1.66e+06	1.38
7A6 VH1/Vκ3 humanized antibody (human IgG1, kappa) (antibody, V domains shown, Tested as IgG in supernatant of transiently transfected HEK293 EBNA cells) VH: DVQLQESGPGLVKPSQTLSLTCTVTGYSITSDYAWNWIRQPPGKGLEWMGYISYSGSARYNPSLKSRITISRDTSMNQFSLKLNSVTAEDTATYYCARKGYPAYFAYWGQGTLVTVSS VL: DIQMTQSPSSLSASVGDRVSITCKASQDVSTAVAWYQQKPGQAPRLLIYSASYRYTGVPDRFSGSGSGTDFTLTISSLQAEDVAVYYCQHHYSTPYTFGQGTKLEIKR	0.963	0.00182	1.89e+06	1.48
7A6 VH1/Vκ2 humanized antibody (human IgG1, kappa) (antibody, V domains shown, Tested as IgG in supernatant of transiently transfected HEK293 EBNA cells) VH: DVQLQESGPGLVKPSQTLSLTCTVTGYSITSDYAWNWIRQPPGKGLEWMGYISYSGSARYNPSLKSRITISRDTSMNQFSLKLNSVTAEDTATYYCARKGYPAYFAYWGQGTLVTVSS VL: DIVMTQSPSSLSASVGDRVSITCKASQDVSTAVAWYQQKPGQAPRLLIYSASYRYTGVPDRFTGSGSGTDFTLTISSLQAEDVAVYYCQHHYSTPYTFGQGTKLEIKR	0.811	0.00146	1.8e+06	1.24
7A6 VH1/Vκ1 humanized antibody (human IgG1, kappa) (antibody, V domains shown, Tested as IgG in supernatant of transiently transfected HEK293 EBNA cells) VH: DVQLQESGPGLVKPSQTLSLTCTVTGYSITSDYAWNWIRQPPGKGLEWMGYISYSGSARYNPSLKSRITISRDTSMNQFSLKLNSVTAEDTATYYCARKGYPAYFAYWGQGTLVTVSS VL: DIVMTQSHSFLSASVGDRVSITCKASQDVSTAVAWYQQKPGQAPELLIYSASYRYTGVPDRFTGSGSGTDFTLTISSLQAEDVAVYYCQHHYSTPYTFGQGTKLEMKR	0.554	0.00129	2.33e+06	0.85
7A6 VH1/Vκ4 humanized antibody (human IgG1, kappa) (antibody, V domains shown, Tested as IgG in supernatant of transiently transfected HEK293 EBNA cells) VH: DVQLQESGPGLVKPSQTLSLTCTVTGYSITSDYAWNWIRQPPGKGLEWMGYISYSGSARYNPSLKSRITISRDTSMNQFSLKLNSVTAEDTATYYCARKGYPAYFAYWGQGTLVTVSS VL: DIQMTQSPSSLSASVGDRVTITCRASQDVSTAVAWYQQKPGQAPRLLIYSASYRYTGVPDRFSGSGSGTDFTLTISSLQAEDVAVYYCQHHYSTPYTFGQGTKLEIKR	0.876	0.00167	1.91e+06	1.34
7A6 VH1/Vκ5 humanized antibody (human IgG1, kappa) (antibody, V domains shown, Tested as IgG in supernatant of transiently transfected HEK293 EBNA cells) VH: DVQLQESGPGLVKPSQTLSLTCTVTGYSITSDYAWNWIRQPPGKGLEWMGYISYSGSARYNPSLKSRITISRDTSMNQFSLKLNSVTAEDTATYYCARKGYPAYFAYWGQGTLVTVSS VL: DIQMTQSPSSLSASVGDRVSITCKASQDVSTAVAWYQQKPGQAPRLLIYSASYRYTGVPDRFSGSGSGTDFTLTISSLQPEDFATYYCQHHYSTPYTFGQGTKLEIKR	0.717	0.00129	1.8e+06	1.1
7A6 VH2/Vκ1 humanized antibody (human IgG1, kappa) (antibody, V domains shown, Tested as IgG in supernatant of transiently transfected HEK293 EBNA cells) VH: DVQLQESGPGLVKPSQTLSLTCTVTGYSITSDYAWNWIRQPPGKGLEWMGYISYSGSARYNPSLKSRITISRDTSKNQFSLKLSSVTAEDTATYYCARKGYPAYFAYWGQGTLVTVSS VL: DIVMTQSHSFLSASVGDRVSITCKASQDVSTAVAWYQQKPGQAPELLIYSASYRYTGVPDRFTGSGSGTDFTLTISSLQAEDVAVYYCQHHYSTPYTFGQGTKLEMKR	0.715	0.00168	2.36e+06	1.1
